Experimental data reported in the supplement of paper PMC9112550, “Optimization of the antimicrobial peptide Bac7 by deep mutational scanning” (BMC Biology, 2022).

Test system: Escherichia coli TOP10
Experiment: shrunken log2 fold change of peptide-encoding DNA abundance (4.5 h post-induction vs induction); higher = less antimicrobial activity (less host growth inhibition)
Conditions: time post-induction: 4.5 h; library: site-saturation at positions 5, 18, 19, 20
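Also: peptides expressed intracellularly from a pBAD plasmid library in pooled LB shake-flask culture, induced with 0.3% L-arabinose, DNA abundance read by NGS, three biological replicates, DESeq2 with apeglm shrinkage.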

| Sequence | shrunken log2 fold change |
| --- | --- |
| RRIRYRPPRLPRPRPRPICWPRP | 0.142 |
| RRIRLRPPRLPRPRPRPWSWPRP | 0.0711 |
| RRIRDRPPRLPRPRPRPVLMPRP | -0.134 |
| RRIRGRPPRLPRPRPRPSLVPRP | 0.473 |
| RRIRTRPPRLPRPRPRPLMIPRP | -0.0131 |
| RRIRMRPPRLPRPRPRPTSIPRP | -0.0517 |
| RRIRERPPRLPRPRPRPDEVPRP | 0.0489 |
| RRIRCRPPRLPRPRPRPINCPRP | -0.0582 |
| RRIRGRPPRLPRPRPRPLNVPRP | -0.095 |
| RRIRLRPPRLPRPRPRPFCDPRP | -0.366 |
| RRIRGRPPRLPRPRPRPRPVPRP | 0.886 |
| RRIRQRPPRLPRPRPRPINIPRP | -0.21 |
| RRIRVRPPRLPRPRPRPRRHPRP | 0.252 |
| RRIRLRPPRLPRPRPRPMEYPRP | 0.015 |
| RRIRHRPPRLPRPRPRPIVHPRP | -0.125 |
| RRIRLRPPRLPRPRPRPETLPRP | 0.228 |
| RRIRSRPPRLPRPRPRPKNPPRP | -0.11 |
| RRIRGRPPRLPRPRPRPVKTPRP | 0.0324 |
| RRIRGRPPRLPRPRPRPGTMPRP | 0.0523 |
| RRIRFRPPRLPRPRPRPQGNPRP | 0.311 |
| RRIRERPPRLPRPRPRPHYSPRP | -0.16 |
| RRIRVRPPRLPRPRPRPHRRPRP | -0.328 |
| RRIRARPPRLPRPRPRPPHDPRP | 1.02 |
| RRIRRRPPRLPRPRPRPHDGPRP | -0.0863 |
| RRIRLRPPRLPRPRPRPHMLPRP | -0.264 |

| Sequence | shrunken log2 fold change |
| --- | --- |
| RRIRLRPPRLPRPRPRPYTCPRP | -0.223 |
| RRIRFRPPRLPRPRPRPMEMPRP | -0.0294 |
| RRIRNRPPRLPRPRPRPRGDPRP | 0.131 |
| RRIRSRPPRLPRPRPRPKECPRP | -0.043 |
| RRIRQRPPRLPRPRPRPQMNPRP | -0.72 |
| RRIRLRPPRLPRPRPRPILGPRP | -0.0186 |
| RRIRYRPPRLPRPRPRPHKDPRP | -0.428 |
| RRIRKRPPRLPRPRPRPEPTPRP | 1.47 |
| RRIRHRPPRLPRPRPRPMVYPRP | -0.0125 |
| RRIRKRPPRLPRPRPRPRNSPRP | -0.0385 |
| RRIRERPPRLPRPRPRPSYTPRP | -0.181 |
| RRIRNRPPRLPRPRPRPRSLPRP | 0.0993 |
| RRIRLRPPRLPRPRPRPLLTPRP | 0.0657 |
| RRIRQRPPRLPRPRPRPVWTPRP | 0.0102 |
| RRIRARPPRLPRPRPRPFPDPRP | 0.262 |
| RRIRYRPPRLPRPRPRPWVKPRP | 0.0136 |
| RRIRMRPPRLPRPRPRPTRKPRP | 1.6 |
| RRIRTRPPRLPRPRPRPAKIPRP | 0.0299 |
| RRIRGRPPRLPRPRPRPFASPRP | 0.215 |
| RRIRCRPPRLPRPRPRPRAMPRP | 0.914 |
| RRIRYRPPRLPRPRPRPQIRPRP | -0.00839 |
| RRIRWRPPRLPRPRPRPCMSPRP | -0.00264 |
| RRIRYRPPRLPRPRPRPCYQPRP | -0.285 |
| RRIRRRPPRLPRPRPRPQEVPRP | -0.00192 |
| RRIRDRPPRLPRPRPRPPEYPRP | -0.0893 |

| Sequence | shrunken log2 fold change |
| --- | --- |
| RRIRLRPPRLPRPRPRPRCQPRP | 0.72 |
| RRIRCRPPRLPRPRPRPHLLPRP | -0.375 |
| RRIRKRPPRLPRPRPRPQHLPRP | 0.0344 |
| RRIRKRPPRLPRPRPRPIWDPRP | -0.0152 |
| RRIRSRPPRLPRPRPRPAQIPRP | -0.0853 |
| RRIRDRPPRLPRPRPRPESIPRP | -0.0509 |
| RRIRFRPPRLPRPRPRPRMRPRP | 0.608 |
| RRIRERPPRLPRPRPRPTHNPRP | -0.206 |
| RRIRVRPPRLPRPRPRPHNHPRP | -0.468 |
| RRIRCRPPRLPRPRPRPVQPPRP | 0.455 |
| RRIRVRPPRLPRPRPRPEIGPRP | 0.0353 |
| RRIRMRPPRLPRPRPRPLMTPRP | 1.3 |
| RRIRFRPPRLPRPRPRPCYGPRP | -0.0414 |
| RRIRIRPPRLPRPRPRPWDFPRP | -0.11 |
| RRIRLRPPRLPRPRPRPRLLPRP | 0.167 |
| RRIRHRPPRLPRPRPRPFSDPRP | -0.149 |
| RRIRHRPPRLPRPRPRPDRWPRP | 0.255 |
| RRIRIRPPRLPRPRPRPWKSPRP | -0.0108 |
| RRIRQRPPRLPRPRPRPAINPRP | -0.171 |
| RRIRARPPRLPRPRPRPWERPRP | 0.12 |
| RRIRARPPRLPRPRPRPSCYPRP | 0.0075 |
| RRIRIRPPRLPRPRPRPTIYPRP | -0.865 |
| RRIRARPPRLPRPRPRPWLRPRP | 0.228 |
| RRIRYRPPRLPRPRPRPCEPPRP | 0.0986 |
| RRIRRRPPRLPRPRPRPPYQPRP | 0.245 |

| Sequence | shrunken log2 fold change |
| --- | --- |
| RRIRRRPPRLPRPRPRPILKPRP | 0.333 |
| RRIRRRPPRLPRPRPRPSWQPRP | 0.133 |
| RRIRERPPRLPRPRPRPLNRPRP | 0.0599 |
| RRIRPRPPRLPRPRPRPKAIPRP | 0.11 |
| RRIRGRPPRLPRPRPRPVKDPRP | 0.68 |
| RRIRNRPPRLPRPRPRPRIIPRP | -0.425 |
| RRIRIRPPRLPRPRPRPSVMPRP | -0.286 |
| RRIRQRPPRLPRPRPRPGLKPRP | 0.0245 |
| RRIRFRPPRLPRPRPRPDNEPRP | -0.0688 |
| RRIRQRPPRLPRPRPRPSKMPRP | -0.0686 |
| RRIRTRPPRLPRPRPRPCNPPRP | -0.0887 |
| RRIRYRPPRLPRPRPRPMVSPRP | -0.00277 |
| RRIRHRPPRLPRPRPRPSHSPRP | -0.577 |
| RRIRQRPPRLPRPRPRPGYIPRP | -0.625 |
| RRIRWRPPRLPRPRPRPYKMPRP | 0.0642 |
| RRIRTRPPRLPRPRPRPMDGPRP | -0.123 |
| RRIRCRPPRLPRPRPRPEVDPRP | 0.0462 |
| RRIRDRPPRLPRPRPRPTPCPRP | 0.25 |
| RRIRPRPPRLPRPRPRPLWVPRP | 0.165 |
| RRIRLRPPRLPRPRPRPCWLPRP | 0.0345 |
| RRIRWRPPRLPRPRPRPHFVPRP | -0.438 |
| RRIRDRPPRLPRPRPRPRARPRP | 0.601 |
| RRIRARPPRLPRPRPRPRFFPRP | 0.453 |
| RRIRHRPPRLPRPRPRPEAWPRP | 0.0548 |
| RRIRFRPPRLPRPRPRPDFTPRP | 0.138 |

| Sequence | shrunken log2 fold change |
| --- | --- |
| RRIRKRPPRLPRPRPRPCYRPRP | -0.0703 |
| RRIRYRPPRLPRPRPRPVMNPRP | -0.115 |
| RRIRPRPPRLPRPRPRPCKFPRP | -0.0234 |
| RRIRARPPRLPRPRPRPRHEPRP | 0.638 |
| RRIRGRPPRLPRPRPRPHDLPRP | -0.00843 |
| RRIRLRPPRLPRPRPRPSSPPRP | -0.115 |
| RRIRYRPPRLPRPRPRPWYFPRP | -0.15 |
| RRIRGRPPRLPRPRPRPEGMPRP | 1.34 |
| RRIRTRPPRLPRPRPRPPFKPRP | 0.332 |
| RRIRQRPPRLPRPRPRPNFAPRP | 0.24 |
| RRIRTRPPRLPRPRPRPRTAPRP | 2.87 |
| RRIRYRPPRLPRPRPRPFIVPRP | -0.173 |
| RRIRARPPRLPRPRPRPNPSPRP | 0.262 |
| RRIRTRPPRLPRPRPRPTQAPRP | 0.111 |
| RRIRQRPPRLPRPRPRPDYYPRP | -0.0251 |
| RRIRCRPPRLPRPRPRPSHFPRP | -0.345 |
| RRIRRRPPRLPRPRPRPKDAPRP | 0.0371 |
| RRIRIRPPRLPRPRPRPAECPRP | -0.311 |
| RRIRFRPPRLPRPRPRPKLQPRP | -0.0358 |
| RRIRHRPPRLPRPRPRPAFLPRP | 0.305 |
| RRIRGRPPRLPRPRPRPSNVPRP | 0.175 |
| RRIRDRPPRLPRPRPRPYHIPRP | -0.107 |
| RRIRTRPPRLPRPRPRPWLHPRP | -0.166 |
| RRIRPRPPRLPRPRPRPPKYPRP | -0.148 |
| RRIRERPPRLPRPRPRPGPHPRP | 0.00422 |
